Test [1] addresses T1, human TIM-3 (human, UniProt Q8TDQ0 22-202, limits assumed).
T1 construct: also called HAVCR2; target antigen
Description: BLI (Octet-96); antigen not named in the paragraph. (In BLI a coated tip is dipped into the sample, and binding shifts an interference pattern.)

For test [2], the target named is T2, biotinylated human TIM-3 (human, UniProt Q8TDQ0 22-202, limits assumed, biotinylated (sites not given)). Put plainly: competition ELISA: antibody coated, biotinylated human TIM-3 preincubated with competitor 4H2. (In an ELISA, binding on a coated surface is turned into a signal by an enzyme label.)
The target of test [3] is T2, biotinylated human TIM-3. Description: competition ELISA: antibody coated, biotinylated human TIM-3 preincubated with competitor 3E6.
Description: (§1) Antibodies were diluted with PBS to 2 μg/mL. 50 μl antibody solution was added to each well of the 96-well plate, which was incubated at 4° C. overnight. The plate was then washed with wash buffer (0.05% Tween in PBS) three times and blocked with 5% skim milk in PBS at 37° C. for two hours. The biotinylated human TIM-3 and antibodies were preincubated at room temperature for half an hour and then added to the plate. The plate was then incubated at room temperature for 1 hour and washed three times with wash buffer. 50 μl streptavidin HRP (1:1000, BD) was then added to each well at room temperature and incubated for about 1 hour. 50 μl of TMB substrate was added to each well, and the reaction was then terminated with 50 μl HCL after 1-5 minutes. Absorbance was read at 450 nm and IC50 value was analyzed.
A further test deals with T3, mouse TIM-3 (mouse, UniProt Q8VIM0 20-281).
T3 construct: whole, on cells
Description: flow cytometry on cells stably expressing mouse TIM-3, PE-labelled secondary antibody; concentration not shown.

The target of test [4] is T1, human TIM-3. Description: blocking assay, flow cytometry: antibody preincubated with recombinant human TIM-3-Fc, then binding of TIM-3-Fc to apoptotic 293T cells; blocked ligand: phosphatidylserine. On the technique in general: A flow cytometer gives signals particle by particle.
Description: After the cells were washed once, PE-labelled goat anti-mouse IgG antibody was added and incubated for 1 hour at 4° C. Finally, samples were washed once with 1× Annexin-V buffer and fluorescence was measured with a flow cytometer (Canto II, BD, USA).
Test [5] addresses T2, biotinylated human TIM-3. Description: competition ELISA: antibody coated, biotinylated human TIM-3 preincubated with competitor 16H1.
Description: as §1
Test [6] has as its target T4, human TIM-3 recombinant protein (TIM-3-his) (human, UniProt Q8TDQ0 22-202).
T4 construct: also called TIM-3 protein; not shown: His tag
Description: biosensor (HFC sensor, Probe Life): antibody captured, TIM-3-his in solution, 1:1 fit.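 Further: antigen applied as a twofold dilution series, association and dissociation phases recorded, KD obtained as koff divided by kon.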

Test [7] has as its target T2, biotinylated human TIM-3. Put plainly: competition ELISA: antibody coated, biotinylated human TIM-3 preincubated with competitor CH 10#.
Description: as §1
Test [8] addresses T2, biotinylated human TIM-3. Put plainly: competition ELISA: antibody coated, biotinylated human TIM-3 preincubated with competitor 19D11.
Description: as §1
In test [9] the target is T2, biotinylated human TIM-3. Description: competition ELISA: antibody coated, biotinylated human TIM-3 preincubated with competitor MBG453.
Description: as §1
In test [10] the target is T2, biotinylated human TIM-3. Put plainly: competition ELISA: antibody coated, biotinylated human TIM-3 preincubated with competitor TSR022.
Description: as §1
The target in test [11] is T2, biotinylated human TIM-3. Description: competition ELISA: antibody coated, biotinylated human TIM-3 preincubated with competitor CH 11#.
Description: as §1
The target in test [12] is T5, cynomolgus TIM-3 (cynomolgus, UniProt A0A2K5U3G7 22-294).
T5 construct: whole, on cells
T5 sequence: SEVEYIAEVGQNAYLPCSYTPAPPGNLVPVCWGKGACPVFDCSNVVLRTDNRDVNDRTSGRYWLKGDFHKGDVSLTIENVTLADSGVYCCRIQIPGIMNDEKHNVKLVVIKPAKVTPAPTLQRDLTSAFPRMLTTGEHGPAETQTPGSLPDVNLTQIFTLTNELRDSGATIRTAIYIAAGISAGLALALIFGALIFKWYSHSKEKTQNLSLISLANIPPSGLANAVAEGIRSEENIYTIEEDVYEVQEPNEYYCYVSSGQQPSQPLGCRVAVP
Put plainly: flow cytometry on 293T cells stably expressing cynomolgus TIM-3, serially diluted antibody, PE-labelled secondary antibody [upper panel].
Description: (§2) Briefly, serially diluted anti-TIM-3 antibodies were incubated with cell lines stably expressing mouse TIM-3 or cynomolgus TIM-3 (10⁵ cells/well). Then, PE-labelled mouse anti-human IgG antibody (Biolegend) was used as detection antibody. A flow cytometer (Canto II, BD, USA) was used to measure fluorescence.

The target in test [13] is T5, cynomolgus TIM-3. Put plainly: flow cytometry on 293T cells stably expressing cynomolgus TIM-3, serially diluted antibody, PE-labelled secondary antibody [lower panel].
Description: as §2
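Wherever inhibit percentage is given: plate-coated antibody at 2 µg/mL.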

Description for mouse TIM-3: as §2

B1: 3E6 VH7/3E6 VL0 (antibody, V domains shown)
VH: QVQLQESGPGLVKPSQTLSLTCTVSGYSITSGFAWNWIRQPPGKGLEWMGYISHSGSTSYNPSLKSRITISRDTSKNQFSLKLSSVTAADTAVYYCARGYRSPWFAYWGQGTTVTVSS
VL: DIQMTQSPSSLSASVGDRVTITCKASQNVGANVAWYQQKPGKAPKSLIYSASYRYSGVPSRFSGSGSGTDFTLTISSLQPEDFATYYCQQYNSYPTFGGGTKVEIK
notes: Humanized 3E6; VH and VL cloned into vectors with constant regions (CH1-FC/CL) and expressed in 293F cells; also called humanized 3E6 VH7/VL0
In the case of B1, binding with human TIM-3 [1] was put at a Kd of 1.96 nM.

B2: CH 10# (antibody, V domains shown)
VH: QVQLQQSGAELMKPGASVKISCKAIGYTFSSYWIEWVKQRPGHGLEWIGEISPGRGSTNYNEKFKGKATFTADTSSNTAYMQLSSLTSEDSAVYYCARDYYGSIFDVWGQGTTVTVSS
VL: DIELTQSPALMAASPGEKVTITCSASSSVSSSYLHWYQQKPGSSPKLWIYSTSNLASGVPARFSGSGSGTSYSLTISSMEAEDAATYYCQQWSSYPLTFGAGTKLEIK
Regarding B2, the inhibit percentage with biotinylated human TIM-3 [2] was determined as 98.6%; with biotinylated human TIM-3 [3], 98.2%; with biotinylated human TIM-3 [5], 45.8%; with biotinylated human TIM-3 [7], 100%; with biotinylated human TIM-3 [8], 98.1%; with biotinylated human TIM-3 [9], 35.4%. Further, the inhibit percentage in the test with biotinylated human TIM-3 [10] stood at 48.5%; in the test with biotinylated human TIM-3 [11], 99.7%. Moreover, the binding result in the test with mouse TIM-3 is “no binding”. In addition, the “IC50 (read off the curve)” value with human TIM-3 [4] was about 4 mg/L. Besides, the Kd – broadly, the equilibrium constant for the complex coming apart – in [6] was 38.2 nM. Moreover, in test [6], the koff (commonly a measure of how fast the partners let go of each other) worked out at 0.00148 s⁻¹. In [6], the kon (usually a measure of how fast the partners come together) came to 38600 M⁻¹ s⁻¹.

B3: 3E6 (antibody, V domains shown)
VH: DVQLQEAGPGLVKPSQSLSLNCTVTGYSITSGFAWNWIRQFPGNKLEWMGYISHSGSTSYNPSLKSRISITRDTSKNQFFLQLNSVTTEDTATYYCARGYRSPWFAYWGQGTLVTVSA
VL: DIIMTQSQKFMSTSVGDRVSVTCKASQNVGANVAWYQQKPRQSPKALIYSASYRYSGVPDRFTGSGSGTDFTLTISNVQSEDLAEYFCQQYNSYPTFGGGTKLEIK
Turning to B3, the inhibit percentage was found to be 99.6% with biotinylated human TIM-3 [2]; 100% in the test with biotinylated human TIM-3 [3]; 26.3% with biotinylated human TIM-3 [5]; 50.1% with biotinylated human TIM-3 [7]; 38.7% with biotinylated human TIM-3 [8]; 24.9% with biotinylated human TIM-3 [9]. Moreover, the inhibit percentage worked out at 16.4% with biotinylated human TIM-3 [10] and 67.1% with biotinylated human TIM-3 [11]. For the same molecule, in the test with mouse TIM-3, the binding result is reported as “no binding”. For the same molecule, the “IC50 (read off the curve)” value with human TIM-3 [4] was about 4 mg/L. Besides, the Kd in test [6] amounted to 0.23 nM. Further, in [6], the koff came to 0.000284 s⁻¹. Besides, in [6], the kon amounted to 1.24e+06 M⁻¹ s⁻¹. The EC50 (read off the curve) (usually the concentration needed to bring the measured effect to its halfway point) in the test with cynomolgus TIM-3 [12] was about 0.1 mg/L.

B4: 19D11 (antibody, V domains shown)
VH: DVQLQESGPDLVKPSQSLSLTCTVTGYSITSGYSWHWIRQFPGNKLEWMGYIYFSGSTNYNPSLKSRISITRDTSKNQFFLQLNSVTTEDTATYYCARGYRSAWFAYWGQGTLVTVSA
VL: DIVMTQSQKFMSTSVGDRVSVTCKASQNVGTNVAWYQQKPGQSPKTLIYSASYRYSGVPDRFTGSGSGTDFTLTISNVQSEDLAEYFCQQYNSYPLVTFGTGTKLELK
Consider B4, for which the inhibit percentage was 100% with biotinylated human TIM-3 [2]; 100% with biotinylated human TIM-3 [3]; 0% with biotinylated human TIM-3 [5]; 100% with biotinylated human TIM-3 [7]; 100% with biotinylated human TIM-3 [8]; 0% with biotinylated human TIM-3 [9]. Also, the inhibit percentage with biotinylated human TIM-3 [10] amounted to 10.3%; with biotinylated human TIM-3 [11] it was 100%. Also, the binding result in the test with mouse TIM-3 is “no binding”. Also, in the test with human TIM-3 [4], the “IC50 (read off the curve)” value was about 7 mg/L. The Kd in test [6] stood at 0.604 nM. Besides, in [6], the koff was 0.00037 s⁻¹. In addition, the kon in [6] is 613000 M⁻¹ s⁻¹.

B5: 39D1 (antibody, V domains shown)
VH: QVQLQQSGAELMKPGASVKISCKATGYTFSSSYWIEWVKQRPGHGLEWIGEILPGSGSINYNEKFKGKATFTADTSSNTVYMQLSSLTSDDSAVYYCARSYYYVMDYWGQGTSVTVSS
VL: QIVLTQSPAIMSASPGEMLTITCSASSSVRFMHWFQQKPGTSPKLWIYSTSNLASGVPARFSGSGSGTSYSLTVSRMEAEDAATYYCQQRSSYPPTFGGGTKLEIK
Consider B5, for which, in test [6], the Kd stood at 1.13 nM, the koff stood at 0.00141 s⁻¹ and the kon worked out at 1.25e+06 M⁻¹ s⁻¹. Moreover, the “EC50 (read off the curve)” value with cynomolgus TIM-3 [13] was about 0.02 mg/L.

B6: 4H2 (antibody, V domains shown)
VH: EVQLQESGPSLVKPSQTLSLTCSVTGDSITSGYWNWIRKFPGNKLEYMGYINYSGSTYYNPSLKSRISITRDTSKNQYYLQLNSVTTEDTATYYCATGNHFDYWGQGTTLTVSS
VL: DIQMTQSPSSLSASLGGKVTITCKASQDINKYIAWYQHKPGKGPRLLIHYTSTLQPGIPSRFSGSGSGTDYSFSISNLEPEDFATYYCLQYDNLLFTFGSGTKLEIK
On to B6, for which the inhibit percentage with biotinylated human TIM-3 [2] amounted to 100%; with biotinylated human TIM-3 [3], 99.9%; with biotinylated human TIM-3 [5], 28.9%; in the test with biotinylated human TIM-3 [7], 56.8%; in the test with biotinylated human TIM-3 [8], 39%; in the test with biotinylated human TIM-3 [9], 28%. Besides, the inhibit percentage in the test with biotinylated human TIM-3 [10] worked out at 16.7%; in the test with biotinylated human TIM-3 [11] it was 62.5%. Moreover, in the test with mouse TIM-3, the binding result is “no binding”. Also, the “IC50 (read off the curve)” value with human TIM-3 [4] is about 4 mg/L. In addition, the Kd in test [6] was determined as 0.424 nM. Moreover, in test [6], the koff was found to be 0.000558 s⁻¹. Also, the kon in test [6] turned out to be 1.32e+06 M⁻¹ s⁻¹. Moreover, the “EC50 (read off the curve)” value with cynomolgus TIM-3 [12] is about 0.07 mg/L.

B7: 16H1 (antibody, V domains shown)
VH: QVQLQQSGPQLVRPGSSVQISCKTSGYSFTSYLMHWVRQRPGQGLEWIGSIDPSDSEISLNQKFMDKATLTVDKSSSTANMQFSSPTSEDSAVYFCARDFGYVAWFVYWGQGTLVTVSA
VL: DIVMTQSHKFMSTSIEDRVSITCKASQDVSAAVAWYQQKPGQTPKLLIYSTFYRYIGVPDRFTGSGSGTDFTFTITSVQAEDLAVYFCQQHYSVPWTFGGGTKLEIK
notes: also called I6H1
Take B7: the inhibit percentage was found to be 64.7% in the test with biotinylated human TIM-3 [2]; 60% in the test with biotinylated human TIM-3 [3]; 100% with biotinylated human TIM-3 [5]; 15.1% with biotinylated human TIM-3 [7]; 0.06% in the test with biotinylated human TIM-3 [8]; 81.7% in the test with biotinylated human TIM-3 [9]. In addition, the inhibit percentage is 4.02% with biotinylated human TIM-3 [10] and 8.26% with biotinylated human TIM-3 [11]. Also, the binding result in the test with mouse TIM-3 was “no binding”. Also, the “IC50 (read off the curve)” value with human TIM-3 [4] was about 2 mg/L. In addition, the dissociation constant (Kd) in test [6] was determined as 0.168 nM. The koff in test [6] came to 0.000218 s⁻¹. Further, the kon in test [6] is 1.3e+06 M⁻¹ s⁻¹. For the same molecule, the “EC50 (read off the curve)” value in the test with cynomolgus TIM-3 [12] was about 0.04 mg/L.

B8: CH 11# (antibody, V domains shown)
VH: QVKLQQSGPDLVKPGASVKISCKASGYSFTGYYMHWVKQSHGKSLEWIGRVNPNNGGTTYKQKFKGKVILTVDKSSSTAYMELRSLTSEDSAVYYCAREGEYFDYYTMDYWGQGTTVTVSS
VL: DIELTQSPASLAVSLGQRATISCRASESVEYYGTSLMQWYQQKPGQPPKLLIYAASNVESGVPARFSGSVSGTDFSLNIHPVEEDDIAVYFCQQSRKVPITFGSGTKLELK
Turning to B8, the inhibit percentage with biotinylated human TIM-3 [2] was determined as 99.6%; with biotinylated human TIM-3 [3] it was 97.8%; with biotinylated human TIM-3 [5], 0%; with biotinylated human TIM-3 [7], 98.2%; with biotinylated human TIM-3 [8], 99.4%; in the test with biotinylated human TIM-3 [9] it was 29.4%. For the same molecule, the figures for the inhibit percentage with biotinylated human TIM-3 [10] and with biotinylated human TIM-3 [11] were 0% and 100%, respectively. Moreover, in the test with mouse TIM-3, the binding result is reported as “no binding”. Also, the Kd in test [6] was found to be 19.1 nM. For the same molecule, the off-rate (koff) in test [6] turned out to be 0.000705 s⁻¹. Moreover, the kon in test [6] is 36900 M⁻¹ s⁻¹.

(Values after patent US20230365685A1 (SUZHOU NEOLOGICS BIOSCIENCE, published 2023).)
